What was measured:
[1] = system: methionyl oligopeptide of SEQ. ID. NO: 1; experiment: Kinetic parameters of aminopeptidase, methionyl oligopeptide substrate; type: biochemical; settings: 37° C.
Text: (§1) In order to compare substrate specificity of aminopeptidase of this invention, 2 kinds of substrate were used. In detail, one was synthetic substrates of p-nitroanilide derivative and purchased from Sigma, USA and the other was oligopeptide such as methionyl oligopeptide of SEQ. ID. NO: 1 which have amino acid sequence similar to N-terminus of methionyl HGH and leucyl oligopeptide of SEQ. ID. NO: 2. The oligopeptides of this invention were synthesized.
(§2) In addition oligopeptide was also used as substrate to perform enzyme reaction by using substrate of known concentration and aminopeptidase in buffer containing 0.1M Tris-Cl, 0.1M NaCl to make 500 μl reaction volume. The enzyme reaction was performed at 37° C. and after 5 and 10 min 250 μl of reaction mixture was adopted and added 70% acetic acid to stop the reaction. The reaction mixture was analyzed by performing HPLC chromatography.
(§3) In reaction condition mentioned above, initial velocity of enzyme reaction was measured with varying the substrate concentration. Lineweaver-Burk plot was used to determine Km value and Maximum reaction velocity of aminopeptidase from Bacillus licheniformis. In addition kcat and kcat/Km was determined by using Km value and maximum reaction velocity described above.

[2] = system: leucyl oligopeptide of SEQ. ID. NO: 2; experiment: Kinetic parameters of aminopeptidase, leucyl oligopeptide substrate; type: biochemical; settings: 37° C.
Text: as §1, §2, §3

B1: Aeromonas proteolytica aminopeptidase: Aeromonas proteolytica (Vibrio prozeolytica) aminopeptidase (Korean Patent Publication NO. 94-14804), comparison enzyme (protein)
chain: MPPITQQATVTAWLPQVDASQITGTISSLESFTNRFYTTTSGAQASDWIASEWQALSASLPNASVKQVSHSGYNQKSVVMTITGSEAPDEWIVIGGHLDSTIGSHTNEQSVAPGADDDASGIAAVTEVIRVLSENNFQPKRSIAFMAYAAEEVGLRGSQDLANQYKSEGKNVVSALQLDMTNYKGSAQDVVFITDYTDSNFTQYLTQLMDEYLPSLTYGFDTCGYACSDHASWHNAGYPAAMPFESKFNDYNPRIHTTQDTLANSDPTGSHAKKFTQLGLAYAIEMGSATGDTPTPGNQ
B1 gave a Km [1] of 956 µM, a kcat [1] of 3.23 s⁻¹ and a Km [2] of 336 µM. It also gave a kcat [2] of 70.29 s⁻¹.
